The target of the assay is atypical chemokine receptor 3 (human (endogenous in hVSMCs)), P25106. In words: proximity ligation; Duolink II PLA on hVSMCs fixed with 4% paraformaldehyde; two primary antibodies from differing species (1:500, 37°C, 105 min); control: omission of one primary antibody; PLA signals per cell counted; cells untreated or incubated 72 h with non-targeting, CXCR4, ACKR3 or AVPR1A siRNA. The conditions noted are these: remark: other sources report otherwise.
Sequence of atypical chemokine receptor 3 (human (endogenous in hVSMCs)), P25106 (P25106 whole entry): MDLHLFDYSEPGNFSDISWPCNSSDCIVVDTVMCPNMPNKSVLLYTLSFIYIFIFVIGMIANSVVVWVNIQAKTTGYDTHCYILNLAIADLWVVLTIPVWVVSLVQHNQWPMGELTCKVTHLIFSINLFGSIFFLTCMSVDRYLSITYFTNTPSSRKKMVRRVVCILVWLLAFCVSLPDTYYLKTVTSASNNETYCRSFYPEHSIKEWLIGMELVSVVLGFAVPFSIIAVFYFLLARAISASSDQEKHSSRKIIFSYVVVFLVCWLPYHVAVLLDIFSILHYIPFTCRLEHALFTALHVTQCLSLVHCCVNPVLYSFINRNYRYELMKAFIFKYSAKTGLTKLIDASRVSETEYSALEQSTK

B1: chemokine (C-X-C motif) receptor 4, P61073 1-352 (receptor)
chain: MEGISIYTSDNYTEEMGSGDYDSMKEPCFREENANFNKIFLPTIYSIIFLTGIVGNGLVILVMGYQKKLRSMTDKYRLHLSVADLLFVITLPFWAVDAVANWYFGNFLCKAVHVIYTVNLYSSVLILAFISLDRYLAIVHATNSQRPRKLLAEKVVYVGVWIPALLLTIPDFIFANVSEADDRYICDRFYPNDLWVVVFQFQHIMVGLILPGIVILSCYCIIISKLSHSKGHQKRKALKTTVILILAFFACWLPYYIGISIDSFILLEIIKQGCEFENTVHKWISITEALAFFHCCLNPILYAFLGAKFKTSAQHALTSVSRGSSLKILSKGKRGGHSSVSTESESSSFHSS
B1 yielded an increase in PLA signals after AVPR1A siRNA, % of NT siRNA of 59%.
